Test results: article PMC10436556, “Epigenetic control of type III interferon expression by 8-oxoguanine and its reader 8-oxoguanine DNA glycosylase1”

Biological target: NF-kB1/p50-p50 (recombinant) (UniProt P19838 1-433)
Assay: EMSA; without OGG1, time course; WCL/NE: 10 mM Tris-HCl pH 7.5, 1 mM EDTA, 50 mM NaCl, 2 mM DTT, 5% glycerol, 0.5% NP-40, BSA, poly(I:C), RT 20 min; His-IRF3: 10 mM Tris pH 7.5, 50 mM KCl, 1 mM DTT, 1% glycerol, 5 mM MgCl2, 0.05% NP-40, poly(I:C), RT 30 min
Conditions: protein: recombinant; chain copies: 2; label: Cy5 on 3' end of bottom strand (Methods text says 5'-Cy5); blunt

Sequence of NF-kB1/p50-p50 (recombinant) (P19838 1-433): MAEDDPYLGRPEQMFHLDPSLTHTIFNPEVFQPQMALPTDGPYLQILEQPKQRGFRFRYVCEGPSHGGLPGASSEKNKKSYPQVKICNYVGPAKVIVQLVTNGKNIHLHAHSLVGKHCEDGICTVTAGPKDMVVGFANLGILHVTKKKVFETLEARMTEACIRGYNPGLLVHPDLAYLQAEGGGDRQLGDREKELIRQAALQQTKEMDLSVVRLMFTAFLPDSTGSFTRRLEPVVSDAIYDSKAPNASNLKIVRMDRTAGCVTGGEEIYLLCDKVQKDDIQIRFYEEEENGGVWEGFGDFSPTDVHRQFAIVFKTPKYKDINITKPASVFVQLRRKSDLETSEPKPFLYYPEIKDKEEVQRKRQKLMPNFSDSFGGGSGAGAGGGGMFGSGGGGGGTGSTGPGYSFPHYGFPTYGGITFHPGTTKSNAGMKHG

B1: Pr2 (dsDNA)
DNA 1: CTGTGTTTTCACTTTTCCTACATCAGCTGGGACTGCCCTTCTGTCAGGGATAA
DNA 2: TTATCCCTGACAGAAGGGCAGTCCCAGCTGATGTAGGAAAAGTGAAAACACAG
modifications: 8-oxoG at top position 48
binding result: binds
